Experimental data reported in PMC2328253.

Target: T1, His-RosE (Salmonella enterica serotype Typhimurium) (UniProt Q8ZK37)
T1 sequence: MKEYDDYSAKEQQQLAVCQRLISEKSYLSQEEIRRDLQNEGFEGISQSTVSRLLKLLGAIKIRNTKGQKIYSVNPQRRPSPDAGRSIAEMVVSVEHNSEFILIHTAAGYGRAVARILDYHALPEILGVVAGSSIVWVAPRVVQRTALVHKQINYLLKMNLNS
Assay: EMSA

“TAAAAAGTATTTCTTTGATGATTATTCTTAAATTACGATCATAATCATCGATCGTATCGATCTATTTTTATTGTTTTAATTTGAATAAGAATTTTCTTACAACTGATTAGGCATTAGCTGAAATCAATATTTTTCGATGGAAAGTTCAGG (double strand) [stdA upstream region 1]” was tested, and the binding was “no binding”.
